The text below walks through data of patent US20260109980A1 (TRUSTEES OF COLUMBIA UNIVERSITY IN THE CITY OF NEW YORK, published 2026).

B1: Vibrio cholerae Cas6 (enzyme)
chain: not shown
notes: Ribonuclease subunit of Cascade, seen within the TniQ-Cascade cryo-EM structure; also called VchCas6; Csy4
B2: Vibrio cholerae Cas7 (other)
chain: not shown
notes: Six copies stand in Cascade; Cas7.1 is the monomer furthest from Cas8 and next to Cas6, and Cas7.2 is the next one; also called VchCas7; Cas7.1

The assay “Vibrio cholerae Cas7” has as its target B2. In words: cryo-EM structure.
The assay “Vibrio cholerae Cas6” deals with B1. In words: cryo-EM structure.

As for B1, in the assay with Vibrio cholerae Cas7, the binding result is on record as “binds”.

For B2, in the assay with Vibrio cholerae Cas6, the binding result is listed as “binds”.
